Experimental data reported in publication PMC2748308.

Experiments:
Assay in all cases: purified protein
Conditions in all cases: 50 mM Hepes pH 8.0
purified protein [1] = substrate: CC(=O)N[C@@H](CC(C)C)C(=O)O
purified protein [2] = substrate: C[C@H](N)C(=O)N[C@@H](Cc1ccccc1)C(=O)O
purified protein [3] = substrate: CC(C)C[C@H](NC(=O)[C@H](C)N)C(=O)O
purified protein [4] = substrate: CC(C)C[C@H](NC=O)C(=O)O
purified protein [5] = substrate: O=CN[C@@H](Cc1ccccc1)C(=O)O
purified protein [6] = substrate: O=CN[C@@H](Cc1ccc(O)cc1)C(=O)O
purified protein [7] = substrate: CC(C)[C@H](NC=O)C(=O)O
purified protein [8] = substrate: CC(=O)N[C@@H](Cc1ccccc1)C(=O)O
purified protein [9] = substrate: CC[C@H](C)[C@H](NC=O)C(=O)O
purified protein [10] = substrate: CC[C@H](C)[C@H](NC(C)=O)C(=O)O
purified protein [11] = substrate: CC(C)C[C@H](NC(=O)[C@@H](N)CC(=O)O)C(=O)O
purified protein [12] = substrate: CC(=O)N[C@@H](Cc1ccc(O)cc1)C(=O)O
purified protein [13] = substrate: CSCC[C@H](NC=O)C(=O)O

B1: Sgx9355e (Alteromonas macleodii) (protein)
chain: MSLDVDSKTLIHAGKLIDGKSDQVQSRISIVIDGNIISDIKKGFISSNDFEDYIDLRDHTVLPGLMDMHVHFGQEYQSKAQAPIKVEREMQAILATQHAYVTFKSGFTTVRQVGDSGLVAISLRDAINSGKLAGPRIFAAGKTIATTGGHADPTNGKAVDDYDYPVPEQGVVNGPYEVYAAVRQRYKDGADGIKITVTGGVLSVAKSGQNPQFTQEEVDAVVSAAKDYGMWVAVHAHGAEGMKRAIKAGVDSIEHGTFMDLEAMDLMIENGTYYVPTISAGEFVAEKSKIDNFFPEIVRPKAASVGPQISDTFRKAYEKGVKIAFGTDAGVQKHGTNWKEFVYMVENGMPAMKAIQSATMETAKLLRIEDKLGSIESGKLADLIAVKGNPIEDISVLENVDVVIKDGLLYE
Protein B1 has a Km (purified protein [1]) of 110 ± 10 µM, a kcat (purified protein [1]) of 0.032 ± 0.01 s⁻¹ and a Km (purified protein [2]) of 70 ± 10 µM. For the same protein, the kcat (purified protein [2]) was 0.41 ± 0.01 s⁻¹, the kcat/Km (purified protein [2]) was 5800 ± 600 M⁻¹ s⁻¹ and the Km (purified protein [3]) was 250 ± 30 µM. For the same protein, the kcat (purified protein [3]) was 0.34 ± 0.01 s⁻¹, the kcat/Km (purified protein [3]) was 1300 ± 200 M⁻¹ s⁻¹ and the Km (purified protein [4]) was 260 ± 40 µM. For the same protein, the kcat (purified protein [4]) was 0.072 ± 0.003 s⁻¹ and the kcat/Km (purified protein [4]) was 280 ± 40 M⁻¹ s⁻¹.

B2: Cc0300 (Caulobacter vibrioides CB15) (protein)
chain: QATFVQAGRLLADPATGKVEIAKTLVLENGKVTRILDGYVAEPGGKVVDLKDSFVLPGLIDSHVHLTGQQNPNGRLQAVTQSPSDSAMVGAGFARKTLMAGFTTVANLGANSQAIFALREGVKRGDVAGPRILASGSSISVHGGHGDINGYSEDVMHALRPESVCSGADDCRRAVREQIWLGADLIKITATGGVLSNTAAGLAKQFSDAELAAIVESAHSMGRKVTAHAHGGDGINAFLKAGGDSIEHGTYLDNEGIALMKKSGAYLVPTLMAGDFVYRIASGPNNYFTPAQTAKALEAGPKMLDMVRRAHADGVKVAFGTDSGVSAHGDNAGEFALLVKAGMTPLEAIQTATVNAADHFSLSNEIGSLTPGKAADLIAVKGDPLKDVTELQRVTSVIKGGVVYK
With B2 the Km (purified protein [5]) was 260 ± 30 µM, the kcat (purified protein [5]) was 52 ± 2 s⁻¹ and the kcat/Km (purified protein [5]) was 200000 ± 20000 M⁻¹ s⁻¹. For the same protein, the Km (purified protein [1]) was 150 ± 30 µM, the kcat (purified protein [1]) was 2.5 ± 0.1 s⁻¹ and the kcat/Km (purified protein [1]) was 16000 ± 3000 M⁻¹ s⁻¹. For the same protein, the Km (purified protein [6]) was 90 ± 10 µM, the kcat (purified protein [6]) was 33 ± 1 s⁻¹ and the kcat/Km (purified protein [6]) was 390000 ± 40000 M⁻¹ s⁻¹. It also gave a Km (purified protein [7]) of 80 ± 10 µM, a kcat (purified protein [7]) of 18 ± 1 s⁻¹ and a kcat/Km (purified protein [7]) of 220000 ± 30000 M⁻¹ s⁻¹. The Km (purified protein [8]) was 310 ± 30 µM, the kcat (purified protein [8]) was 5.3 ± 0.2 s⁻¹ and the kcat/Km (purified protein [8]) was 17000 ± 2000 M⁻¹ s⁻¹. It also gave a Km (purified protein [9]) of 70 ± 10 µM, a kcat (purified protein [9]) of 20 ± 1 s⁻¹ and a kcat/Km (purified protein [9]) of 290000 ± 40000 M⁻¹ s⁻¹. The Km (purified protein [10]) was 140 ± 20 µM, the kcat (purified protein [10]) was 2.6 ± 0.1 s⁻¹ and the kcat/Km (purified protein [10]) was 19000 ± 2000 M⁻¹ s⁻¹. For the same protein, the Km (purified protein [11]) was 220 ± 40 µM, the kcat (purified protein [11]) was 29 ± 1 s⁻¹ and the kcat/Km (purified protein [11]) was 130000 ± 20000 M⁻¹ s⁻¹. For the same protein, the Km (purified protein [2]) was 660 ± 50 µM, the kcat (purified protein [2]) was 19 ± 1 s⁻¹ and the kcat/Km (purified protein [2]) was 29000 ± 3000 M⁻¹ s⁻¹. The Km (purified protein [12]) was 170 ± 20 µM, the kcat (purified protein [12]) was 4.6 ± 0.2 s⁻¹ and the kcat/Km (purified protein [12]) was 27000 ± 3000 M⁻¹ s⁻¹. It also gave a Km (purified protein [3]) of 350 ± 40 µM, a kcat (purified protein [3]) of 37 ± 2 s⁻¹ and a kcat/Km (purified protein [3]) of 110000 ± 10000 M⁻¹ s⁻¹. For the same protein, the Km (purified protein [4]) was 130 ± 10 µM, the kcat (purified protein [4]) was 39 ± 2 s⁻¹ and the kcat/Km (purified protein [4]) was 300000 ± 30000 M⁻¹ s⁻¹. The Km (purified protein [13]) was 410 ± 30 µM, the kcat (purified protein [13]) was 12 ± 1 s⁻¹ and the kcat/Km (purified protein [13]) was 29000 ± 2000 M⁻¹ s⁻¹.
